This assay deals with T1, rmCIRP (Mus musculus, UniProt P60824).
T1 construct: purchased Cubasio Technology LLC CSB-EP613483He0
T1 sequence (P60824 1-172): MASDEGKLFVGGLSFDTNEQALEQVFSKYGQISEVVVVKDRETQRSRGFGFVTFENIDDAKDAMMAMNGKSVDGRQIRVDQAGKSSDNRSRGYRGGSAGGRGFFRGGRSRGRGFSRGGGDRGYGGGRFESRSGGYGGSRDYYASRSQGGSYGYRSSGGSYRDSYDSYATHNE
As to the kind of experiment: Surface plasmon resonance (Biacore/OpenSPR) binding to rmCIRP. To be noted: rmCIRP immobilized, rmMFG-E8 analyte 15.7 to 250 nM, DPBS with Ca/Mg, 1% BSA, pH 7.4; read-out: equilibrium dissociation KD between rmCIRP and rmMFG-E8. On the set-up: species or system murine. The source says: Computational modeling was used to determine the likely domain of MFG-E8's binding to eCIRP. The known amino acid (AA) sequence of this domain was used to develop and test potential therapeutic peptides. An MFG-E8 derived oligopeptide, MOP3, was developed based on 15 AA from MFG-E8 discoidin 2 domain (mimicking MFG-E8's C-terminal) and tagged with the 3 AA, RGD, (mimicking MFG-E8's binding capacity for the integrin receptor at the N-terminal). Binding of MOP3 to CIRP was quantified using Surface Plasmon Resonance (SPR) analysis. Macrophages (RAW264.7 cells) were treated with FITC-recombinant mouse (rm)-CIRP or co-incubated MOP3 and FITC-rmCIRP with and without a. Br-integrin Ab. After 1 h, cells were fixed and analyzed for intracellular FITC-rmCIRP by flow cytometry. Macrophages were stimulated with rmCIRP or co-incubated mixture of MOP3 and rmCIRP. After 4 h, cell culture supernatants were analyzed for inflammatory cytokine, TNFα. […]
To examine the direct interaction between rmCIRP and rmMFG-E8, surface plasmon resonance (SPR), OpenSPR (Nicoya), was performed between rmCIRP and rmMFG-E8. rmCIRP was immobilized on carboxyl sensor and rmMFG-E8 was injected as an analyte in concentrations of 15.7 nM to 250 nM. […] To evaluate binding, the analyte was injected into flow cell-1 and flow cell-2 and increasing concentrations and real-time interaction data were analyzed by TraceDrawer (Nicoya). […]
Background: In SPR one partner is held on a chip, and binding of the other changes the refractive index at the surface.

B1: milk fat globule-epidermal growth factor—factor VIII (protein, listed as Mus musculus)
chain: MQVSRVLAALCGMLLCASGLFAASGDFCDSSLCLNGGTCLTGQDNDIYCLCPEGFTGLVCNETERGPCSPNPCYNDAKCLVTLDTQRGDIFTEYICQCPVGYSGIHCETETNYYNLDGEYMFTTAVPNTAVPTPAPTPDLSNNLASRCSTQLGMEGGAIADSQISASSVYMGFMGLQRWGPELARLYRTGIVNAWTASNYDSKPWIQVNLLRKMRVSGVMTQGASRAGRAEYLKTFKVAYSLDGRKFEFIQDESGGDKEFLGNLDNNSLKVNMFNPTLEAQYIKLYPVSCHRGCTLRFELLGCELHGCSEPLGLKNNTIPDSQMSASSSYKTWNLRAFGWYPHLGRLDNQGKINAWTAQSNSAKEWLQVDLGTQRQVTGIITQGARDFGHIQYVASYKVAHSDDGVQWTVYEEQGSSKVFQGNLDNNSHKKNIFEKPFMARYVRVLPVSWHNRITLRLELLGC
As to B1, the Kd (as a rule, a measure of binding affinity in units of concentration) came to 200 nM.
